According to publication PMC11574045, “A cofactor-induced repressive type of transcription factor condensation can be induced by synthetic peptides to suppress tumorigenesis” (The EMBO Journal, 2024):

B1: TAF1C (protein, UniProt Q15572 1-869, looked up)
TATA box-binding …: MDFPSSLRPALFLTGPLGLSDVPDLSFMCSWRDALTLPEAQPQNSENGALHVTKDLLWEPATPGPLPMLPPLIDPWDPGLTARDLLFRGGCRYRKRPRVVLDVTEQISRFLLDHGDVAFAPLGKLMLENFKLEGAGSRTKKKTVVSVKKLLQDLGGHQPWGCPWAYLSNRQRRFSILGGPILGTSVASHLAELLHEELVLRWEQLLLDEACTGGALAWVPGRTPQFGQLVYPAGGAQDRLHFQEVVLTPGDNPQFLGKPGRIQLQGPVRQVVTCTVQGESKALIYTFLPHWLTCYLTPGPFHPSSALLAVRSDYHCAVWKFGKQWQPTLLQAMQVEKGATGISLSPHLPGELAICSRSGAVCLWSPEDGLRQIYRDPETLVFRDSSSWRWADFTAHPRVLTVGDRTGVKMLDTQGPPGCGLLLFRLGAEASCQKGERVLLTQYLGHSSPKCLPPTLHLVCTQFSLYLVDERLPLVPMLKWNHGLPSPLLLARLLPPPRPSCVQPLLLGGQGGQLQLLHLAGEGASVPRLAGPPQSLPSRIDSLPAFPLLEPKIQWRLQERLKAPTIGLAAVVPPLPSAPTPGLVLFQLSAAGDVFYQQLRPQVDSSLRRDAGPPGDTQPDCHAPTASWTSQDTAGCSQWLKALLKVPLAPPVWTAPTFTHRQMLGSTELRREEEEGQRLGVLRKAMARGQLLLQRDLGSLPAAEPPPAPESGLEDKLSERLGEAWAGRGAAWWERQQGRTSEPGRQTRRPKRRTQLSSSFSLSGHVDPSEDTSSPHSPEWPPADALPLPPTTPPSQELTPDACAQGVPSEQRQMLRDYMAKLPPQRDTPGCATTPPHSQASSVRATRSQQHTPVLSSSQPLRKKPRMGF
B2: TADA2L (protein, UniProt O75478 1-443, looked up)
Transcriptional adapter …: MDRLGPFSNDPSDKPPCRGCSSYLMEPYIKCAECGPPPFFLCLQCFTRGFEYKKHQSDHTYEIMTSDFPVLDPSWTAQEEMALLEAVMDCGFGNWQDVANQMCTKTKEECEKHYMKHFINNPLFASTLLNLKQAEEAKTADTAIPFHSTDDPPRPTFDSLLSRDMAGYMPARADFIEEFDNYAEWDLRDIDFVEDDSDILHALKMAVVDIYHSRLKERQRRKKIIRDHGLINLRKFQLMERRYPKEVQDLYETMRRFARIVGPVEHDKFIESHALEFELRREIKRLQEYRTAGITNFCSARTYDHLKKTREEERLKRTMLSEVLQYIQDSSACQQWLRRQADIDSGLSPSIPMASNSGRRSAPPLNLTGLPGTEKLNEKEKELCQMVRLVPGAYLEYKSALLNECNKQGGLRLAQARALIKIDVNKTRKIYDFLIREGYITKG
B3: TADA2B (protein, UniProt Q86TJ2 1-420, looked up)
Transcriptional adapter 2-beta: MAELGKKYCVYCLAEVSPLRFRCTECQDIELCPECFSAGAEIGHHRRYHGYQLVDGGRFTLWGPEAEGGWTSREEQLLLDAIEQFGFGNWEDMAAHVGASRTPQEVMEHYVSMYIHGNLGKACIPDTIPNRVTDHTCPSGGPLSPSLTTPLPPLDISVAEQQQLGYMPLRDDYEIEYDQDAETLISGLSVNYDDDDVEIELKRAHVDMYVRKLKERQRRKNIARDYNLVPAFLGKDKKEKEKALKRKITKEEKELRLKLRPLYQFMSCKEFDDLFENMHKEKMLRAKIRELQRYRRNGITKMEESAEYEAARHKREKRKENKNLAGSKRGKEDGKDSEFAAIENLPGFELLSDREKVLCSSLNLSPARYVTVKTIIIKDHLQKRQGIPSKSRLPSYLDKVLKKRILNFLTESGWISRDAS
B4: TBX19 (protein, UniProt Q99ME7 1-446, looked up)
T-box transcription factor …: MSELATQKAGEGTVSRLLNVVESELQAGREKGDPTEKQLQIILEDAPLWQRFKEVTNEMIVTKNGRRMFPVLKISVTGLDPNAMYSLLLDFVRTDSHRWKYVNGEWVPAGKPEVSSHSCVYIHPDSPNFGAHWMKAPISFSKVKLTNKLNGGGQIMLNSLHKYEPQVHIVRVGGAHRMVMNCSFPETQFIAVTAYQNEEITALKIKYNPFAKAFLDAKERNHLKDVPEAISESQHVTYSHLGGWILSNPDGVCTAANSNYQYATPLPLPAPHTHHGCEHYAGLRGHRQAPYPSAYMHRNHSPSVNLIESSSNNLQVFSGPDSWTSLSSTPHASILSVPHSNGPINPGPSPYPCLWTISNGGGGPVASGSEVHASTSGTILLGNPAVTSPSSLLPTQATTSAGVEVLGEPSLTSIAVSTWTAVASHPLPGWGGPGGAGRHSSSSLDS
B5: BIF1 (protein, UniProt Q9Y371 1-365, looked up)
Endophilin-B1: MNIMDFNVKKLAADAGTFLSRAVQFTEEKLGQAEKTELDAHLENLLSKAECTKIWTEKIMKQTEVLLQPNPNARIEEFVYEKLDRKAPSRINNPELLGQYMIDAGTEFGPGTAYGNALIKCGETQKRIGTADRELIQTSALNFLTPLRNFIEGDYKTIAKERKLLQNKRLDLDAAKTRLKKAKAAETRNSSEQELRITQSEFDRQAEITRLLLEGISSTHAHHLRCLNDFVEAQMTYYAQCYQYMLDLQKQLGSFPSNYLSNNNQTSVTPVPSVLPNAIGSSAMASTSGLVITSPSNLSDLKECSGSRKARVLYDYDAANSTELSLLADEVITVFSVVGMDSDWLMGERGNQKGKVPITYLELLN
B6: TBX6 (protein, UniProt O95947 1-436, looked up)
T-box transcription factor …: MYHPRELYPSLGAGYRLGPAQPGADSSFPPALAEGYRYPELDTPKLDCFLSGMEAAPRTLAAHPPLPLLPPAMGTEPAPSAPEALHSLPGVSLSLENRELWKEFSSVGTEMIITKAGRRMFPACRVSVTGLDPEARYLFLLDVIPVDGARYRWQGRRWEPSGKAEPRLPDRVYIHPDSPATGAHWMRQPVSFHRVKLTNSTLDPHGHLILHSMHKYQPRIHLVRAAQLCSQHWGGMASFRFPETTFISVTAYQNPQITQLKIAANPFAKGFRENGRNCKRERDARVKRKLRGPEPAATEAYGSGDTPGGPCDSTLGGDIRESDPEQAPAPGEATAAPAPLCGGPSAEAYLLHPAAFHGAPSHLPTRSPSFPEAPDSGRSAPYSAAFLELPHGSGGSGYPAAPPAVPFAPHFLQGGPFPLPYTAPGGYLDVGSKPMY
B7: TADA3L (protein, UniProt O75528 1-432, looked up)
Transcriptional adapter 3: MSELKDCPLQFHDFKSVDHLKVCPRYTAVLARSEDDGIGIEELDTLQLELETLLSSASRRLRVLEAETQILTDWQDKKGDRRFLKLGRDHELGAPPKHGKPKKQKLEGKAGHGPGPGPGRPKSKNLQPKIQEYEFTDDPIDVPRIPKNDAPNRFWASVEPYCADITSEEVRTLEELLKPPEDEAEHYKIPPLGKHYSQRWAQEDLLEEQKDGARAAAVADKKKGLMGPLTELDTKDVDALLKKSEAQHEQPEDGCPFGALTQRLLQALVEENIISPMEDSPIPDMSGKESGADGASTSPRNQNKPFSVPHTKSLESRIKEELIAQGLLESEDRPAEDSEDEVLAELRKRQAELKALSAHNRTKKHDLLRLAKEEVSRQELRQRVRMADNEVMDAFRKIMAARQKKRTPTKKEKDQAWKTLKERESILKLLDG
B8: TBX20 (protein, UniProt Q9UMR3 1-447, looked up)
T-box transcription factor …: MEFTASPKPQLSSRANAFSIAALMSSGGSKEKEATENTIKPLEQFVEKSSCAQPLGELTSLDAHGEFGGGSGSSPSSSSLCTEPLIPTTPIIPSEEMAKIACSLETKELWDKFHELGTEMIITKSGRRMFPTIRVSFSGVDPEAKYIVLMDIVPVDNKRYRYAYHRSSWLVAGKADPPLPARLYVHPDSPFTGEQLLKQMVSFEKVKLTNNELDQHGHIILNSMHKYQPRVHIIKKKDHTASLLNLKSEEFRTFIFPETVFTAVTAYQNQLITKLKIDSNPFAKGFRDSSRLTDIERESVESLIQKHSYARSPIRTYGGEEDVLGDESQTTPNRGSAFTTSDNLSLSSWVSSSSSFPGFQHPQSLTALGTSTASIATPIPHPIQGSLPPYSRLGMPLTPSAIASSMQGSGPTFPSFHMPRYHHYFQQGPYAAIQGLRHSSAVMTPFV
B9: TCEB2 (protein, UniProt Q15370 1-118, looked up)
Elongin-B: MDVFLMIRRHKTTIFTDAKESSTVFELKRIVEGILKRPPDEQRLYKDDQLLDDGKTLGECGFTSQTARPQAPATVGLAFRADDTFEALCIEPFSSPPELPDVMKPQDSGSSANEQAVQ
B10: TBR1 (protein, UniProt Q16650 1-682, looked up)
T-box brain protein 1: MQLEHCLSPSIMLSKKFLNVSSSYPHSGGSELVLHDHPIISTTDNLERSSPLKKITRGMTNQSDTDNFPDSKDSPGDVQRSKLSPVLDGVSELRHSFDGSAADRYLLSQSSQPQSAATAPSAMFPYPGQHGPAHPAFSIGSPSRYMAHHPVITNGAYNSLLSNSSPQGYPTAGYPYPQQYGHSYQGAPFYQFSSTQPGLVPGKAQVYLCNRPLWLKFHRHQTEMIITKQGRRMFPFLSFNISGLDPTAHYNIFVDVILADPNHWRFQGGKWVPCGKADTNVQGNRVYMHPDSPNTGAHWMRQEISFGKLKLTNNKGASNNNGQMVVLQSLHKYQPRLHVVEVNEDGTEDTSQPGRVQTFTFPETQFIAVTAYQNTDITQLKIDHNPFAKGFRDNYDTIYTGCDMDRLTPSPNDSPRSQIVPGARYAMAGSFLQDQFVSNYAKARFHPGAGAGPGPGTDRSVPHTNGLLSPQQAEDPGAPSPQRWFVTPANNRLDFAASAYDTATDFAGNAATLLSYAAAGVKALPLQAAGCTGRPLGYYADPSGWGARSPPQYCGTKSGSVLPCWPNSAAAAARMAGANPYLGEEAEGLAAERSPLPPGAAEDAKPKDLSDSSWIETPSSIKSIDSSDSGIYEQAKRRRISPADTPVSESSSPLKSEVLAQRDCEKNCAKDISGYYGFYSHS
B11: TAF9 (protein, UniProt Q8VI33 1-264, looked up)
Transcription initiation …: MESGKMASPKSMPKDAQMMAQILKDMGITEYEPRVINQMLEFAFRYVTTILDDAKIYSSHAKKATVDADDVRLAIQCRADQSFTSPPPRDFLLDIARQRNQTPLPLIKPYSGPRLPPDRYCLTAPNYRLKSLQKKAPAPAGRITVPRLSVGSVSSRPSTPTLGTPTPQTMSVSTKVGTPMSLTGQRFTVQMPASQSPAVKASIPATSTVQNVLINPSLIGSKNILITTNMVSQNTAESANALKRKREDDDDDDDDDDDDDYDNM
B12: BHLHE41 (protein, UniProt Q9C0J9 1-482, looked up)
Class E basic …: MDEGIPHLQERQLLEHRDFIGLDYSSLYMCKPKRSMKRDDTKDTYKLPHRLIEKKRRDRINECIAQLKDLLPEHLKLTTLGHLEKAVVLELTLKHLKALTALTEQQHQKIIALQNGERSLKSPIQSDLDAFHSGFQTCAKEVLQYLSRFESWTPREPRCVQLINHLHAVATQFLPTPQLLTQQVPLSKGTGAPSAAGSAAAPCLERAGQKLEPLAYCVPVIQRTQPSAELAAENDTDTDSGYGGEAEARPDREKGKGAGASRVTIKQEPPGEDSPAPKRMKLDSRGGGSGGGPGGGAAAAAAALLGPDPAAAAALLRPDAALLSSLVAFGGGGGAPFPQPAAAAAPFCLPFCFLSPSAAAAYVQPFLDKSGLEKYLYPAAAAAPFPLLYPGIPAPAAAAAAAAAAAAAAAAFPCLSSVLSPPPEKAGAAAATLLPHEVAPLGAPHPQHPHGRTHLPFAGPREPGNPESSAQEDPSQPGKEAP

Test system: HEK293FT cells transfected with TF library
Experiment: Screening of TF condensates based on fluorescent puncta
Type: cell-based
Conditions: Figure 1B numerical data; TF library screen, one value per transcriptional factor
In short: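 HEK293FT cells were reverse-transfected with Flag- or GAL4-tagged TF plasmids (1.6 μg/ml, PEI). After 60 h, cells were cultured 12 h with or without glucose, then fixed and immunostained with anti-Flag or anti-GAL4 and Alexa 488 secondaries. Fluorescent puncta were imaged over fifty random fields per well by high-content imaging.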

| Molecule | Z score of condensed fraction |
| --- | --- |
| B1 | 0.1895 |
| B2 | 2.809 |
| B3 | -0.4021 |
| B4 | 1.015 |
| B5 | -0.08025 |
| B6 | -0.7283 |
| B7 | 1.084 |
| B8 | 0.6837 |
| B9 | -0.4277 |
| B10 | -0.7739 |
| B11 | -0.7072 |
| B12 | -0.9569 |
